This data set in a line: protein stability index of a GFP-peptide fusion (GPS, HEK-293T) (PSI 1-6); higher = more stable.
Where [1] appears, read: treatment: DMSO, c terminus: a fixed tail appended.
Setting [2] is: treatment: MLN4924 1 uM, 8 h, c terminus: a fixed tail appended.

± gives the standard deviation.
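Further: 24-mer peptide tiles fused after GFP, lentivirally expressed, FACS-sorted into six equal bins by GFP/DsRed ratio, decoded by Illumina sequencing, PSI is the read-weighted mean bin number.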

The sequence VAEETPDGAPALCPSPEALSPEPP [PRKX] displayed a protein stability index under setting [1] of 5.48 ± 0.21 and a protein stability index under setting [2] of 5.41 ± 0.31.

As for VAFLEQRASALLASCSKNCTNSPA [FBXO34], the protein stability index runs as follows: under setting [1], 2.9 ± 0.25; under setting [2], 2.76 ± 0.28.

Consider VAITILQDDHDHKVQELMSTHELE [MTUS2], for which the protein stability index is 3.3 ± 0.3 under setting [1] and 3.43 ± 0.23 under setting [2].

In the case of VAPQDQCKLTCQAQALGYYYVLEP [ADAMTS4], the protein stability index under setting [1] stood at 2.58 ± 0.22 and the protein stability index under setting [2] is 2.4 ± 0.04.

With VASEMRFVQDLVRALEQEKLQGVE [DAPK3], the protein stability index reads like this: under setting [1], 4.42 ± 0.44; under setting [2], 4.73 ± 0.37.

Regarding VASGSTPAPALCCAPYDSRLLGSA [IRX6], the protein stability index was 2.64 ± 0.21 under setting [1] and 2.99 ± 0.13 under setting [2].

The sequence VASVGNSRPTGQQLESLGLLAPGE [KISS1] came in with a protein stability index under setting [1] of 4.44 ± 0.17 and a protein stability index under setting [2] of 4.52 ± 0.3.

For the sequence VAVLLLFLVVREPPRGAVERHSDL [SPNS1], the protein stability index under setting [1] was determined as 3.02 ± 0.64 and the protein stability index under setting [2] was determined as 2.99 ± 0.53.

VCCCELGVNPDQVEKIRKLPNTLL [ANKRD40]: the protein stability index by setting is: under setting [1], 2.26 ± 0.36; under setting [2], 2.82 ± 0.32.

As to VCVFLSHGEGNHIYAYDAKIEIQT [CASP6], the protein stability index runs as follows: under setting [1], 3.11 ± 0.26; under setting [2], 2.75 ± 0.64.

With VEALQLSARWLEVLRTYLELVLCV [FBXO33], the protein stability index under setting [1] was determined as 2.58 ± 0.35 and the protein stability index under setting [2] was 2.46 ± 0.73.

Regarding VEDLVDSLKLALLFYILTFVGAIF [RTN2], the protein stability index is, setting by setting: under setting [1], 2.8 ± 0.35; under setting [2], 2.48 ± 0.55.

VEPPGPGDTVVQGDLQETTVVTGL [PBXIP1] had a protein stability index under setting [1] of 5.31 ± 0.4 and a protein stability index under setting [2] of 5.15 ± 0.46.

With VESFKTKVSYLKQKGLGGAMVWAL [CHIT1], the protein stability index by setting is: under setting [1], 2.54 ± 0.49; under setting [2], 2.7 ± 0.56.

Consider VFIISTLAIDFIDEGRLLLEFDLL [SOAT2], for which the protein stability index was 3.23 ± 0.31 under setting [1] and 3.03 ± 0.36 under setting [2].

For the sequence VFPETAFIAVTSYQNHKITQLKIE [TBX5], the protein stability index is 2.22 ± 0.35 under setting [1] and 2.21 ± 0.32 under setting [2].

On to VGGTIRTCQKFLIQYNRRQLLILL [POP5], for which the protein stability index worked out at 2.96 ± 0.47 under setting [1] and 2.64 ± 0.67 under setting [2].

For VGLIRNLALCPANHAPLREQGAIP [CTNNB1], the protein stability index is, setting by setting: under setting [1], 3.21 ± 0.24; under setting [2], 3.32 ± 0.32.

Take VGVMLPHNTTEAPGPHSAKQDSYE [ZC2HC1C]: the protein stability index is, setting by setting: under setting [1], 5.03 ± 0.27; under setting [2], 5.215 ± 0.033.

VIESFTELSRIVLMRHGMEKIWRP [RAB40C]: the protein stability index is, setting by setting: under setting [1], 3.11 ± 1; under setting [2], 2.6 ± 0.59.

For the sequence VKGMQRIVNQWSEKFSDEGDSDSA [DLC1], the protein stability index worked out at 4.68 ± 0.21 under setting [1] and 5.09 ± 0.29 under setting [2].

For the sequence VKKNSAKSMGLKKKAFVWARNIGF [ACSBG2], the protein stability index by setting is: under setting [1], 2.03 ± 0.12; under setting [2], 2.24 ± 0.22.

With VKVLAGQEYAAKIINTKKLSARDH [CAMK2A], the protein stability index runs as follows: under setting [1], 3.15 ± 0.34; under setting [2], 3.33 ± 0.11.

For VKWMVVFAIGVCTGLVGLFVDFFV [CLCN6], the protein stability index under setting [1] worked out at 2.16 ± 0.31 and the protein stability index under setting [2] was determined as 2.42 ± 0.46.

In the case of VLERGDSAPATAKENAAAPSPVRA [PALM], the protein stability index was determined as 5.3 ± 0.23 under setting [1] and 5.24 ± 0.078 under setting [2].

Turning to VLGADGVCMTFMKQIAGGDVTAKN [INTS3], the protein stability index is 3.51 ± 0.26 under setting [1] and 3.6 ± 0.42 under setting [2].

As to VLSHIMFDGPEAWGVCEPQREEVE [ZER1], the protein stability index is, setting by setting: under setting [1], 3.63 ± 0.17; under setting [2], 3.49 ± 0.28.

For the sequence VLSREQSRRSYDDQLRSGSPPKSP [DNAJC4], the protein stability index was 5.29 ± 0.26 under setting [1] and 5.45 ± 0.12 under setting [2].

As for VLTKKFQVTMRGLLSCLSKSNNRL [FBXO39], the protein stability index by setting is: under setting [1], 3.16 ± 0.51; under setting [2], 3.24 ± 1.2.

Turning to VLTLPFDVVKTQRQVALGAMEAVR [SLC25A39], the protein stability index is, setting by setting: under setting [1], 2.51 ± 0.36; under setting [2], 2.71 ± 0.26.

For the sequence VNIMRTYTYEKLLWTTSRVLKVLS [CTNNB1], the protein stability index runs as follows: under setting [1], 2.18 ± 0.14; under setting [2], 2.41 ± 0.67.

As for VNSYYSSPAQQVPKNPALEAFLAQ [TOR1AIP2], the protein stability index is, setting by setting: under setting [1], 3.45 ± 0.36; under setting [2], 3.66 ± 0.25.

Regarding VPPRMGSRAGGPTTPLSPTRLSRL [LMNB1], the protein stability index is, setting by setting: under setting [1], 3.92 ± 0.57; under setting [2], 3.85 ± 0.56.

As to VQAPRWGNPRALSFVLSSLQLGEG [OAS1], the protein stability index by setting is: under setting [1], 2.31 ± 0.2; under setting [2], 2.24 ± 0.22.

Take VQPCSAVHLLLKKVLFALCALNAL [FAM189A2]: the protein stability index is, setting by setting: under setting [1], 2.26 ± 0.37; under setting [2], 2.35 ± 0.6.

VQSLCAKHGIEYQSKPLLSAFADI [FADS1]: the protein stability index runs as follows: under setting [1], 2.31 ± 0.3; under setting [2], 2.32 ± 0.26.

The sequence VRAAQLCSQHWGGMASFRFPETTF [TBX6] gave a protein stability index under setting [1] of 2.48 ± 0.59 and a protein stability index under setting [2] of 2.1 ± 0.34.

VRKVPPGYSIKVFDFERSGLQHAP [SMAD6]: the protein stability index reads like this: under setting [1], 2.31 ± 0.33; under setting [2], 2.63 ± 0.035.

Consider VSSNNRLVVTGSGEHASVYQITY [TLE6], for which the protein stability index is, setting by setting: (treatment: DMSO, c terminus: native) 2.7 ± 0.26; (treatment: MLN4924 1 uM, 8 h, c terminus: native) 2.68 ± 0.23.

For the sequence VSWFGSPTTSFLSISKLSPFSEFF [PWWP2B], the protein stability index under setting [1] came to 2.32 ± 0.62 and the protein stability index under setting [2] worked out at 2.35 ± 0.41.

As for VTQPCGDCGTIQENWVCLSCYQVY [HDAC6], the protein stability index by setting is: under setting [1], 2.89 ± 0.57; under setting [2], 2.96 ± 0.7.

VTTYLHKDYNNLWIIKKHNTNSDP [POMT2]: the protein stability index reads like this: under setting [1], 2.31 ± 0.48; under setting [2], 2.5 ± 0.23.

With VVGGAMFFIGFTALVIMWQKHYVY [COX4I1], the protein stability index reads like this: under setting [1], 3.11 ± 0.29; under setting [2], 3.24 ± 0.49.

With VVLCEGVKWLSFHSGYDFGYLIKI [CNOT7], the protein stability index under setting [1] came out at 2.87 ± 0.36 and the protein stability index under setting [2] came out at 3.09 ± 1.2.

With VVLLFETALLSSGFSLEDPQTHSN [HSP90AB1], the protein stability index under setting [2] stood at 2.83 ± 0.84.

In the case of VVTTEHILVSVAAGVSLSTLEELL [PYCR3], the protein stability index is, setting by setting: under setting [1], 3.04 ± 0.72; under setting [2], 2.78 ± 0.66.

As for VYDNEKKLQLQLNETKSQAFVSNS [PLD5], the protein stability index reads like this: under setting [1], 4.48 ± 0.47; under setting [2], 4.33 ± 0.19.

Sequence VYEDETKVVHAVDGTAENGIHPLS [PALM] displayed a protein stability index under setting [1] of 4.88 ± 0.24 and a protein stability index under setting [2] of 5.11 ± 0.11.

Turning to VYRFVCDLQNLLGFTPEELHAILG [ETS2], the protein stability index is, setting by setting: under setting [1], 2.21 ± 0.41; under setting [2], 2.19 ± 0.11.

Sequence VYTETVHVTVENVQELLPAACLLQ [KLHL12] returned a protein stability index under setting [1] of 2.12 ± 0.52 and a protein stability index under setting [2] of 1.91 ± 0.26.

In the case of WAEAECQRQQLPVTFGNKQKVLGK [BTBD1], the protein stability index runs as follows: under setting [1], 4.42 ± 0.45; under setting [2], 4.31 ± 0.42.

Take WDSFSAWLHCVCVVGFDLELGQAV [DENND6A]: the protein stability index by setting is: under setting [1], 3.04 ± 0.34; under setting [2], 3.27 ± 0.68.

Take WEIAKAEVEKRGINGSEGDGAEIA [DYNC2LI1]: the protein stability index runs as follows: under setting [1], 5.26 ± 0.22; under setting [2], 5.18 ± 0.27.

Source of the values: the supplement of paper PMC10567573.
